Reference: a protein production outcome set (Wang et al. 2014)

Experiment: label from the status in PepcDB records
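Further: failed if final PepcDB status was selected cloned or expressed and not failed if soluble or beyond.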

With “GRYEIRFSGAGGQGLILAGVIMAEAASIYDGKQAVQSQSYGPEARGGASKSEVIISDGPVDYPKATQCDALLALTQEACDKYSADLKEGGVLLVDSDLVTKLPPGNYQTTAFNIINTAKNDVGREIVANIVALGAMVALTGVVSKEAAEKAVLSRVPEAFVELNRKAFQMGFEKALAAKK” the protein production was “not failed”.
With “GSAASSALKGLIQQFTTITGASESVGKHMLEACNNNLEMAVTMFLDGGG” the protein production was “not failed”.
In the case of “GSAHSDEQSSGTLSSPGQSDILLTAAQGTVRKAGALAVKNFLVHKKNKKVESATRRKWKHYWVSLKGCTLFFYESDGRSGIDHNSIPKHAVWVENSIVQAVPEHPKKDFVFCLSNSLGDAFLFQTTSQTELENWITAIHSACATAVAR”, the protein production is reported as “failed”.
For “GSALIDEIRSLGESLQGYNVRHINSTIIGGGVAEILSSLVPLMEDVGLTVNWEVLAGTTEFFHTTKLFHNGMHGQPVNITGEMLENYLAIAQKNQNLLDGDADLVVIHDQQPLGLTAFRGRTRGRWLWYCHVDPRYAVPEVWYFLAPMVATCDAAVFHLP”, the protein production was “failed”.
With “GSAQPRHDAQRPALAPRSDGFDIHTYHPDFVADPYPLLRLIRSRAPVCRDQASIWWISRYADVSACLRDRRFSADPARLGAAGVRQGGASWFGHQQLQPLARFYDNFMLFNDAPRHTRLRRLFAPAFGPDAVRRWEARIEVLVEELLDSLLERREPDLLRDFAEPLTIRVAAELFGFPREDTGQLLPWGRDLAAGLDLAASHGDAGQINRSAVAFSDYLQRQARGWSDGSSRPPSGAAPSILDGAAMLEAGLGLEDLVAAYAMVFMAAFETTISMVGNATLALLTHPDQLDLLRRCPELAANAVEELLRFDGAVRGGVRCTLEEVEIGGQRIPPGEKVWLSFLAANRDPEMFAAPDRLQLQRANAKQHVAFAHGPHYCLGAYLARLELQCALRGLVRRRFALASEPTDLRWRRSSVFRTLERLPIVP” the protein production was “failed”.
With “GSGLDVKNLVDAIVTAEITPSQVRHDKQLNSVNTELSALGQLKSYLTNLQTSLAKLSSLSQFYTMKSTISDPNYFSATLGTGATKNTYQIEIQKLAQQHS” the protein production was “failed”.
For “GSHMKEDQVVAEEPGFQDEEESLFQDIDLLQKHGINVADIKKLKSVGICTIKGIQMTTRRALCNVKGLSEAKVDKIKEAANKLIEPGFLTAFEYSEKRKMVFHITTGSQEFDKLLGGGIESMAITEAFGEFRTGKTQLSHTLCVTAQLPGAGGYPGGKIIFIDTENTFRPDRLRDIADRFNVDHDAVLDNVLYARAYTSEHQMELLDYVAAKFHEEAGIFKLLIIDSIMALFRVDFSGRGELAERQQKLAQMLSRLQKISEEYNVAVFVTNQMTADPGATMTFQADPKKPIGGHILAHASTTRISLRKGRGELRIAKIYDSPEMPENEATFAITAGGIGDAKE”, the protein production was “not failed”.
With “GSSGSSGMCGRFAQSQTREDYLALLAEDIERDIPYDPEPIGRYNVAPGTKVLLLSERDEHLHLDPVFWGYAPGWWDKPPLINARVETAATSRMFKPLWQHGRAICFADGWFEWKKEGDKKQPFFIYRADGQPIFMAAIGSTPFERGDEAEGFLIVTAAADQGLVDIHDRRPLVLSPEAAREWMRQEISGKEASEIAASGCVPANQFSWHPVSRAVGNVKNQGAELIQPV” the protein production was “not failed”.
With “GSSGSSGMSSMTQNLREVMKVMFKVPGFDRVLEKVTLVSAAPEKLICEMKVEEQHTNKLGTLHGGLTATLVDSISTMALMCTERGAPGVSVDMNITYMSPAKIGEEIVITAHILKQGKTLAFASVDLTNKTTGKLIAQGRHTKHLGNSGPSSG” the protein production was “not failed”.
In the case of “GSSGSSGPTMEGPLRRKTLLKEGRKPALSSWTRYWVVLSGATLLYYGAKSLRGTDRKHYKSTPGKKVSIVGWMVQLPDDPEHPDIFQLNNPDKGNVYKFQTGSRFHAILWHKHLDDACKSSRPQVPANLMSFE”, the protein production is reported as “not failed”.
In the case of “GSSGSSGSTVVMADVSQYHVNHLVTFCLGEEDGVHTVEDASRKLAVMDSQGRVWAQEMLLRVSPSQVTLLDPVSKEELESYPLDAIVRCDAVMPRGRSRSLLLLVCQEPERAQPDVHFFQGLLLGAELIREDIQGALQNYRSGRGERSGPSSG”, the protein production is reported as “not failed”.
With “GTVLVSIKSSLPENNFFDDALIDELLQQFASFGEVILIRFVEDKMWVTFLEGSSALNVLSLNGKELLNRTITIALKSP” the protein production was “not failed”.
For “GYDHKGMGITARGAWESVKRHFRALGRDCQNEDFRCIGVGDMSGDVFGNGMLLSRHSLLVAAFDHRHIFLDPMPDAALSFAERERLFKLPRSSWADYDATLISKGGGIYPRTLKSIQISPQVAEVLGLDKGIKQLSPNVLISAILKAPVDLFWNGGIGTYVKASSETHADVGDRANNALRVNGLELRCKVVGEGGNLGLTQLGRIEAAQRGVLLNTDFIDNSAGVDTSDHEVNIKILLNDVVQAKTLCFDARNALLASMTDDVAQLVLWDNIRQNQALSLMERMSVKRLGSKQHFIRTLERQGLLDRQIEFLPSDAELSARKARGLGL”, the protein production was “failed”.
For “GYTPQQLDSMVRKQDWMFLLSDRVKRSAMSLNEREKSEKYVFSFPFTKSPKDAVSGGIIKGQNLANLFTELTVGYHDSVDFNKLPIPFACVSQNIVNGEQIVFHNGILATAMRASMAIPGVFTPVRKDSMILIDGGMINNYPVDVARSMGADIIIGVDVQNNLKGID”, the protein production was “failed”.
In the case of “HDLALSGNAYKVRLFLSLIGREATLRPVDFLNREHKTQAFLRMNPRGQIPVLEDGELQLGDSHAILVYLARRHADPVWYPLDPVSQGRIAYWLSYSANEVQNGPASARLITRFNLPLDREQTHQRGLEVLRLVDRHLAEHRWLAQGEQPSIADVALYPYLALAPEGGLALDHYPALNAWIARIRALPGYIPMPGL”, the protein production is reported as “not failed”.
With “HKEFAVTMRPTEASERCHLRGSYTLRAGESALELWGGPEPGTQLYDWPYRFLRRFGRDKVTFSFEAGRRCVSGEGNFEFETRQGNEIFLALEEAISAQKN” the protein production was “not failed”.
In the case of “HKSMSKMKSTLKQFISMGNMLTAENNFFRQMQGLLSETTEIAAMTGGIIFLADKQEGHFTPTAFRWNGENIPVAEMPSLSITEDSFTTFQPVLEGKTIAGTLNKENIFHQLQDFLQPYLPLRFVAVPMKTHDKQLLGFLLLFNPYQLNAEREHSKIQLVNALVGSLSVSVETQQLLQEQKNLLNA”, the protein production is reported as “failed”.
With “HMARSLYPLGVSRSLPPYRRTFNHQTFIFVKSILRLGVSMEEEEFDIREALANGEHLEKILIMAKYDESVLKKLIELLDDDLWTVVKNAISIIMVIAKTREDLYEPMLKKLFSLLKKSEAIPLTQEIAKAFGQMAKEKPELVKSMIPVLFANYRIGDEKTKINVSYALEEIAKANPMLMASIVRDFMSMLSSKNREDKLTALNFIEAMGENSFKYVNPFLPRIINLLHDGDEIVRASAVEALVHLATLNDKLRKVVIKRLEELNDTSSLVNKTVKEGISRLLLLEGHSSS” the protein production was “not failed”.
In the case of “HMPSVIVVGGQWGDEGKGSIVAYLSLHDEPEIIARGGVGTNAGHSVVINGKKYAVRQIPTGFMQTKARLLIGAGVLVDPEVFFHELEQLKDFNVKDRVGIDYRCAIIEEKHKQLDRTNGYLHGKIGTTGSGCGPANADRVMRKAKQAKDVKELEPYLTDVAQEINDALDEGSLVLVEGTQGFGLSLYYGTYPYVTSKDVTASSVAADVGIGPTRVDEVIVVFKSFPTRVGAGPFPTEMPMEEADRLGLVEYGTVTGRRRRVGWFDFEMARYSARINGATMLAVTMLDKYDKEAFGVTDYDKLPRKAKEFIEEIEERVGVPVGLIKTGPELEHIIDRRDTI”, the protein production is reported as “not failed”.
In the case of “HNESIRYLIVPGWQGSPDDHWQAHWQNSLPNSTRVEQADWLKPRREDWVGELQRTIAAQSTPVILIAHSLGCVTVAHWAQLAPLETLRQVQGALLVAPADVERPNCPPALRNFAPIPADLLPFPTQVVSSDNDPAVSSQRAIEMARHWGAELGFLSQAGHINVKSGHQRWEQGFAYLYRLQNRLEQ”, the protein production is reported as “failed”.
For “HPQYIVFCDFDETYFPHTIDEQKQQDIYELEDYLEQKSKDGELIIGWVTGSSIESILDKMGRGKFRYFPHFIASDLGTEITYFSEHNFGQQDNKWNSRINEGFSKEKVEKLVKQLHENHNILLNPQTQLGKSRYKHNFYYQEQDEINDKKNLLAIEKICEEYGVSVNINRCNPLAGDPEDSYDVDFIPIGTGKNEIVTFMLEKYNLNTERAIAFGDSGNDVRMLQTVGNGYLLKNATQEAKNLHNLITDSEYSKGITNTLKKLIGFMRR”, the protein production was “failed”.
For “HQIVHVRGDSETDLEALFNAVMNPKTANVPQTVPMRLRKLPDSFFKPPEPKSHSRQASTDAGTAGALTPQHVRAHSSPASLQLGAVSPGTLTPTGVVSGPAATPTAQHLRQSS”, the protein production was “failed”.
With “HRAQRQQMTVLRGDAQSIDIIDLQTFIDSFEEHIWVKNTEGVYTICNQSVEKAWDLPRSDIVGKTDEDLFGKAIADIFLNGDRLAIEAGAPIIVAECLDGENKNNHLWLETLKLPALTPDGELAGVIGMTRNISKHKEVEEQLTLATNVFKHSF” the protein production was “failed”.
For “HRYIPTLFFHGWGSSYHAETHMADAIVKAGKTQTIVRAMVAKNGTVTLKGHFRSGDYRPIVEVNFANNRSSDYPTVGRWAKNVVVALQRTYGITSFNMVGHSMGNMAITYYLLANAQNKRLPQLRQQVAIAGHFNGILGMDDSPNQMTLNAAGRPNKLRPAYRQLLGLRRVYPRQQVRVLNIYGDKGDGTHSDGSVSNASSRSLRYLVAARARSYREVKLTGKHAQHSQLHENAQVDRLLIDFLWPTH”, the protein production was “not failed”.
With “HSEPSHQSKAVVELPHKQGMARLAAGLLHPDMTIYLDAGTSTLEIVPHIIALSGMTVVTNDFGVVNALADAAHVDVIHTGGLLDHPNRSSVGGLAAATLRQLATDVAFMSTSSWDLQRGTTTPSALKVEVKQAAMQSASQTVLVATSSKY” the protein production was “failed”.
For “HTYKSLFVAPCDAGVKSIKDLKGKSVAFVDPASTSGGLMPTYMVKKETGMMPQQFFGKFTYSGSHDAAELAVKNKTVDAAADNDITYEKMLAKGLITKETNCVVKESDPLPGSPLVYRKDLPAATKKKIRDAILNAH”, the protein production was “failed”.
With “IDKKLTTLADLFRPPIDLMHKGSFETAKECGQMQNKWLMINIQNVQDFACQCLNRDVWSNEAVKNIIREHFIFWQVYHDSEEGQRYIQFYKLGDFPYVSILDPRTGQKLVEWHQLDVSSFLDQVTGFLGEHGQLDGLSSS” the protein production was “not failed”.
With “IDPVMVAAFEGWNDAGDAASTAVAHLDREWKGEVFAALDAEDYYDFQVNRPTVWLDGGVRKITWPTTRLSVVRVGGEKPRDLVLVRGIEPSMRWRSFCNELLAFAHELGVELVVVLGALLGDTPHTRPVPVSGVTSDPDLARTMDLEETKYEGPTGIVGILQEACTHAGVPAVSLWAAVPHYVSQPPNPKATLALLNRLEDLIDVRIPLGELPEDARAWQVGVDQLAAEDSEVAEYVQSLEEARDTA” the protein production was “not failed”.
In the case of “IDRSTHFALRYRTLCHQQAQFKSPLRGLRGTRASLIPHQLHIAAEVGNRVNPRVLLADEVGLGKTIEAGMILQNQLFAEKVQRVLIIVPETLQHQWLVEMLRRFNLHFALFDEERCNDFDLDAVNPFTTESLIICSLNWLETHPNRVELVLNAQFDCLIVDEAHHLVWSETSPSTAYLLVEQLARIIPSVLLLTATPE”, the protein production is reported as “failed”.
In the case of “IEEVYEATLDAIQGALNCDRASILLFDEAGTMRFVAARGLSEHYQRAVDGHSPWITGANEPEPIFVENVDDAEFSRELKESIVGEGIAALGFFPLVTEGRLIGKFMTYYDRPHRFADSEIGMALTIARQLGFSIQRMRAEYARRQAEE”, the protein production is reported as “not failed”.
With “IEPEYFGEDAAENILIGWGSLEGAIKEAVNDLNKEGKEKYAALIFGDVWPLPEKLLREKASKAKTLIDVEQNAQGQLADIIREGTGIEVDKKILKYDGRPIMASYIVGRIKE” the protein production was “not failed”.
With “IESASDMIAAFGKDQRFITFNEAYQREFKRLFDKSISINMSLEEAFNNAPENKKKLVQSWKESLQRDEETKNIEVNTEQEKTIYEMTSKLIQNGDNEIKGVVHSVRNIT” the protein production was “failed”.
